Source: patent CN118206654A (BEILAI PHARMACEUTICAL CO LTD, dated 2024)

T1: Biotin-IL-17A-His (human, UniProt Q16552 24-155, limits assumed, biotin (site not stated))
T1 construct: also called 人IL-17A蛋白 (biotinylated)
T1 sequence: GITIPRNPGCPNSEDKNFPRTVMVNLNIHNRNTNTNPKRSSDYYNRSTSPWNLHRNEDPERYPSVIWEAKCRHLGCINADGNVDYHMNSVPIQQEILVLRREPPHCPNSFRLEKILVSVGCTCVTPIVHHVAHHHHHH

B1: 阳性对照抗体Ixekizumab (antibody, human IgG4 S228P, kappa, V domains shown)
VH: QVQLVQSGAEVKKPGSSVKVSCKASGYSFTDYHIHWVRQAPGQGLEWMGVINPMYGTTDYNQRFKGRVTITADESTSTAYMELSSLRSEDTAVYYCARYDYFTGTGVYWGQGTLVTVSS
VL: DIVMTQTPLSLSVTPGQPASISCRSSRSLVHSRGNTYLHWYLQKPGQSPQLLIYKVSNRFIGVPDRFSGSGSGTDFTLKISRVEAEDVGVYYCSQSTHLPFTFGQGTKLEIKR
notes: also called 阳性抗体

Assays:
[1] = molecular target: IL-17RA and IL-17RC co-expressed on 293F-IL-17RA-IL-17Rc-ACT1-NFκB-Luc cells (UniProt Q96F46); experiment: flow cytometry; IL17A-His on 293F-IL-17RA-IL-17Rc-ACT1-NFκB-Luc cells, APC anti-His
Biotin-IL-17A-His = molecular target: T1, Biotin-IL-17A-His; experiment: ELISA; antibody coated at 2 ug/mL, Biotin-IL-17A-His titrated from 10 ug/mL (5-fold, 7 points), HRP-Streptavidin; the concentration is that of IL-17A

Molecule	阳性率 [1]	EC50 (Biotin-IL-17A-His)
Human IL-17A重组蛋白 (C-terminal 6×His) (from UniProt Q16552 24-155) (ligand)	> 90%	–
B1	–	10.1 µg/mL
